Source: doi:10.1101/2021.08.20.457084
Values joined by “and” are separate entries in the source; they are usually repeats but may differ in a detail not shown here. Equal entries are not always repeated.

Tests used:
[1] = molecular target: CsGSIb EVK138DIQ mutant (Camellia sinensis); assay: AUC
[2] = molecular target: CsGSIb EVK138DIQ mutant (Camellia sinensis); assay: SEC-MALS
[3] = molecular target: CsGSIb I143L mutant (Camellia sinensis); assay: AUC
[4] = molecular target: CsGSIb I143L mutant (Camellia sinensis); assay: SEC-MALS
[5] = molecular target: glutamine synthetase CsGSIb from Camellia sinensis, wild type (Camellia sinensis); assay: AUC
[6] = molecular target: glutamine synthetase CsGSIb from Camellia sinensis, wild type (Camellia sinensis); assay: negative-stain electron microscopy
[7] = molecular target: glutamine synthetase CsGSIb from Camellia sinensis, wild type (Camellia sinensis); assay: SEC-MALS
[8] = molecular target: glutamine synthetase CsGSIb from Camellia sinensis, wild type (Camellia sinensis); assay: cryo-EM structure
[9] = molecular target: glutamine synthetase CsGSIb from Camellia sinensis, wild type (Camellia sinensis); assay: cryo-EM structure; remark: listed apart in the source
[10] = molecular target: glutamine synthetase GmGSβ2 from Glycine max (Glycine max); assay: negative-stain electron microscopy
[11] = molecular target: glutamine synthetase GmGSβ2 from Glycine max (Glycine max); assay: SEC-MALS
[12] = molecular target: glutamine synthetase GmGSβ2 from Glycine max (Glycine max); assay: cryo-EM structure

## CsGSIb EVK138DIQ mutant (enzyme)
[1]
  Kd: 40 nM
[2]
  percent of the protein in the decameric state: 72%
  stoichiometry N: 10

## CsGSIb I143L mutant (enzyme)
[3]
  Kd: 10 nM
[4]
  percent of the protein in the decameric state: > 95%
  stoichiometry N: 10

## glutamine synthetase CsGSIb from Camellia sinensis, wild type (enzyme)
[5]
  Kd: 270 nM
  stoichiometry N: 10 and 5
[6]
  stoichiometry N: 5 and 10
[7]
  percent of the protein in the decameric state: 18%
  percent of the protein in the pentameric state: 82%
  stoichiometry N: 5 and 10
[8]
  stoichiometry N: 10
[9]
  stoichiometry N: 5

## glutamine synthetase GmGSβ2 from Glycine max (enzyme)
[10]
  stoichiometry N: 10
[11]
  stoichiometry N: 10
[12]
  stoichiometry N: 10
